Assay results as given in patent US20210388087A1 (Chugai, published 2021).

B1: CE115HA000 A99D one-arm antibody (antibody, human IgG1, kappa, L234A L235A, N297A, name in Kabat numbering)
heavy: QVQLVESGGGVVQPGRSLRLSCAASGFTFSNAWMHWVRQAPGKGLEWVAQIKAKSNNYATYYAESVKGRFTISRDDSKNSLYLQMNSLKTEDTAVYYCRYVHYGDYYGVDAWGQGTTVTVSSASTKGPSVFPLAPSSKSTSGGTAALGCLVKDYFPEPVTVSWNSGALTSGVHTFPAVLQSSGLYSLSSVVTVPSSSLGTQTYICNVNHKPSNTKVDKKVEPKSCDKTHTCPPCPAPEAAGGPSVFLFPPKPKDTLMISRTPEVTCVVVDVSHEDPEVKFNWYVDGVEVHNAKTKPREEQYASTYRVVSVLTVLHQDWLNGKEYKCKVSNKALPAPIEKTISKAKGQPREPQVYTLPPSRCELTKNQVSLSCAVKGFYPSDIAVEWESNGQPENNYKTTPPVLDSDGSFFLVSKLTVDKSRWQQGNVFSCSVMHEALHNHYTQKSLSLSPDYKDDDDK
chain: EPKSSDKTHTCPPCPAPELLGGPSVFLFPPKPKDTLMISRTPEVTCVVVDVSHEDPEVKFNWYVDGVEVHNAKTKPREEQYNSTYRVVSVLTVLHQDWLNGKEYKCKVSNKALPAPIEKTISKAKGQPREPQVCTLPPSRDELTKNQVSLWCLVKGFYPSDIAVEWESNGQPENNYKTTPPVLDSDGSFFLYSKLTVDKSRWQQGNVFSCSVMHEALHNRYTQKSLSLSP
light: DIVMTQSPLSLPVTPGEPASISCRSSQSLVHSNRNTYLHWYQQKPGQAPRLLIYKVSNRFSGVPDRFSGSGSGTDFTLKISRVEAEDVGVYYCGQGTQVPYTFGQGTKLEIKRTVAAPSVFIFPPSDEQLKSGTASVVCLLNNFYPREAKVQWKVDNALQSGNSQESVTEQDSKDSTYSLSSTLTLSKADYEKHKVYACEVTHQGLSSPVTKSFNRGEC
B2: CE115HA000 A99K one-arm antibody (antibody, human IgG1, kappa, L234A L235A, N297A, name in Kabat numbering)
heavy: QVQLVESGGGVVQPGRSLRLSCAASGFTFSNAWMHWVRQAPGKGLEWVAQIKAKSNNYATYYAESVKGRFTISRDDSKNSLYLQMNSLKTEDTAVYYCRYVHYGKYYGVDAWGQGTTVTVSSASTKGPSVFPLAPSSKSTSGGTAALGCLVKDYFPEPVTVSWNSGALTSGVHTFPAVLQSSGLYSLSSVVTVPSSSLGTQTYICNVNHKPSNTKVDKKVEPKSCDKTHTCPPCPAPEAAGGPSVFLFPPKPKDTLMISRTPEVTCVVVDVSHEDPEVKFNWYVDGVEVHNAKTKPREEQYASTYRVVSVLTVLHQDWLNGKEYKCKVSNKALPAPIEKTISKAKGQPREPQVYTLPPSRCELTKNQVSLSCAVKGFYPSDIAVEWESNGQPENNYKTTPPVLDSDGSFFLVSKLTVDKSRWQQGNVFSCSVMHEALHNHYTQKSLSLSPDYKDDDDK
chain: EPKSSDKTHTCPPCPAPELLGGPSVFLFPPKPKDTLMISRTPEVTCVVVDVSHEDPEVKFNWYVDGVEVHNAKTKPREEQYNSTYRVVSVLTVLHQDWLNGKEYKCKVSNKALPAPIEKTISKAKGQPREPQVCTLPPSRDELTKNQVSLWCLVKGFYPSDIAVEWESNGQPENNYKTTPPVLDSDGSFFLYSKLTVDKSRWQQGNVFSCSVMHEALHNRYTQKSLSLSP
light: DIVMTQSPLSLPVTPGEPASISCRSSQSLVHSNRNTYLHWYQQKPGQAPRLLIYKVSNRFSGVPDRFSGSGSGTDFTLKISRVEAEDVGVYYCGQGTQVPYTFGQGTKLEIKRTVAAPSVFIFPPSDEQLKSGTASVVCLLNNFYPREAKVQWKVDNALQSGNSQESVTEQDSKDSTYSLSSTLTLSKADYEKHKVYACEVTHQGLSSPVTKSFNRGEC
B3: CE115HA000 A99Q one-arm antibody (antibody, human IgG1, kappa, L234A L235A, N297A, name in Kabat numbering)
heavy: QVQLVESGGGVVQPGRSLRLSCAASGFTFSNAWMHWVRQAPGKGLEWVAQIKAKSNNYATYYAESVKGRFTISRDDSKNSLYLQMNSLKTEDTAVYYCRYVHYGQYYGVDAWGQGTTVTVSSASTKGPSVFPLAPSSKSTSGGTAALGCLVKDYFPEPVTVSWNSGALTSGVHTFPAVLQSSGLYSLSSVVTVPSSSLGTQTYICNVNHKPSNTKVDKKVEPKSCDKTHTCPPCPAPEAAGGPSVFLFPPKPKDTLMISRTPEVTCVVVDVSHEDPEVKFNWYVDGVEVHNAKTKPREEQYASTYRVVSVLTVLHQDWLNGKEYKCKVSNKALPAPIEKTISKAKGQPREPQVYTLPPSRCELTKNQVSLSCAVKGFYPSDIAVEWESNGQPENNYKTTPPVLDSDGSFFLVSKLTVDKSRWQQGNVFSCSVMHEALHNHYTQKSLSLSPDYKDDDDK
chain: EPKSSDKTHTCPPCPAPELLGGPSVFLFPPKPKDTLMISRTPEVTCVVVDVSHEDPEVKFNWYVDGVEVHNAKTKPREEQYNSTYRVVSVLTVLHQDWLNGKEYKCKVSNKALPAPIEKTISKAKGQPREPQVCTLPPSRDELTKNQVSLWCLVKGFYPSDIAVEWESNGQPENNYKTTPPVLDSDGSFFLYSKLTVDKSRWQQGNVFSCSVMHEALHNRYTQKSLSLSP
light: DIVMTQSPLSLPVTPGEPASISCRSSQSLVHSNRNTYLHWYQQKPGQAPRLLIYKVSNRFSGVPDRFSGSGSGTDFTLKISRVEAEDVGVYYCGQGTQVPYTFGQGTKLEIKRTVAAPSVFIFPPSDEQLKSGTASVVCLLNNFYPREAKVQWKVDNALQSGNSQESVTEQDSKDSTYSLSSTLTLSKADYEKHKVYACEVTHQGLSSPVTKSFNRGEC
B4: CE115HA000 A99S one-arm antibody (antibody, human IgG1, kappa, L234A L235A, N297A, name in Kabat numbering)
heavy: QVQLVESGGGVVQPGRSLRLSCAASGFTFSNAWMHWVRQAPGKGLEWVAQIKAKSNNYATYYAESVKGRFTISRDDSKNSLYLQMNSLKTEDTAVYYCRYVHYGSYYGVDAWGQGTTVTVSSASTKGPSVFPLAPSSKSTSGGTAALGCLVKDYFPEPVTVSWNSGALTSGVHTFPAVLQSSGLYSLSSVVTVPSSSLGTQTYICNVNHKPSNTKVDKKVEPKSCDKTHTCPPCPAPEAAGGPSVFLFPPKPKDTLMISRTPEVTCVVVDVSHEDPEVKFNWYVDGVEVHNAKTKPREEQYASTYRVVSVLTVLHQDWLNGKEYKCKVSNKALPAPIEKTISKAKGQPREPQVYTLPPSRCELTKNQVSLSCAVKGFYPSDIAVEWESNGQPENNYKTTPPVLDSDGSFFLVSKLTVDKSRWQQGNVFSCSVMHEALHNHYTQKSLSLSPDYKDDDDK
chain: EPKSSDKTHTCPPCPAPELLGGPSVFLFPPKPKDTLMISRTPEVTCVVVDVSHEDPEVKFNWYVDGVEVHNAKTKPREEQYNSTYRVVSVLTVLHQDWLNGKEYKCKVSNKALPAPIEKTISKAKGQPREPQVCTLPPSRDELTKNQVSLWCLVKGFYPSDIAVEWESNGQPENNYKTTPPVLDSDGSFFLYSKLTVDKSRWQQGNVFSCSVMHEALHNRYTQKSLSLSP
light: DIVMTQSPLSLPVTPGEPASISCRSSQSLVHSNRNTYLHWYQQKPGQAPRLLIYKVSNRFSGVPDRFSGSGSGTDFTLKISRVEAEDVGVYYCGQGTQVPYTFGQGTKLEIKRTVAAPSVFIFPPSDEQLKSGTASVVCLLNNFYPREAKVQWKVDNALQSGNSQESVTEQDSKDSTYSLSSTLTLSKADYEKHKVYACEVTHQGLSSPVTKSFNRGEC
B5: CE115HA000 A99F one-arm antibody (antibody, human IgG1, kappa, L234A L235A, N297A, name in Kabat numbering)
heavy: QVQLVESGGGVVQPGRSLRLSCAASGFTFSNAWMHWVRQAPGKGLEWVAQIKAKSNNYATYYAESVKGRFTISRDDSKNSLYLQMNSLKTEDTAVYYCRYVHYGFYYGVDAWGQGTTVTVSSASTKGPSVFPLAPSSKSTSGGTAALGCLVKDYFPEPVTVSWNSGALTSGVHTFPAVLQSSGLYSLSSVVTVPSSSLGTQTYICNVNHKPSNTKVDKKVEPKSCDKTHTCPPCPAPEAAGGPSVFLFPPKPKDTLMISRTPEVTCVVVDVSHEDPEVKFNWYVDGVEVHNAKTKPREEQYASTYRVVSVLTVLHQDWLNGKEYKCKVSNKALPAPIEKTISKAKGQPREPQVYTLPPSRCELTKNQVSLSCAVKGFYPSDIAVEWESNGQPENNYKTTPPVLDSDGSFFLVSKLTVDKSRWQQGNVFSCSVMHEALHNHYTQKSLSLSPDYKDDDDK
chain: EPKSSDKTHTCPPCPAPELLGGPSVFLFPPKPKDTLMISRTPEVTCVVVDVSHEDPEVKFNWYVDGVEVHNAKTKPREEQYNSTYRVVSVLTVLHQDWLNGKEYKCKVSNKALPAPIEKTISKAKGQPREPQVCTLPPSRDELTKNQVSLWCLVKGFYPSDIAVEWESNGQPENNYKTTPPVLDSDGSFFLYSKLTVDKSRWQQGNVFSCSVMHEALHNRYTQKSLSLSP
light: DIVMTQSPLSLPVTPGEPASISCRSSQSLVHSNRNTYLHWYQQKPGQAPRLLIYKVSNRFSGVPDRFSGSGSGTDFTLKISRVEAEDVGVYYCGQGTQVPYTFGQGTKLEIKRTVAAPSVFIFPPSDEQLKSGTASVVCLLNNFYPREAKVQWKVDNALQSGNSQESVTEQDSKDSTYSLSSTLTLSKADYEKHKVYACEVTHQGLSSPVTKSFNRGEC
B6: CE115HA000 A99L one-arm antibody (antibody, human IgG1, kappa, L234A L235A, N297A, name in Kabat numbering)
heavy: QVQLVESGGGVVQPGRSLRLSCAASGFTFSNAWMHWVRQAPGKGLEWVAQIKAKSNNYATYYAESVKGRFTISRDDSKNSLYLQMNSLKTEDTAVYYCRYVHYGLYYGVDAWGQGTTVTVSSASTKGPSVFPLAPSSKSTSGGTAALGCLVKDYFPEPVTVSWNSGALTSGVHTFPAVLQSSGLYSLSSVVTVPSSSLGTQTYICNVNHKPSNTKVDKKVEPKSCDKTHTCPPCPAPEAAGGPSVFLFPPKPKDTLMISRTPEVTCVVVDVSHEDPEVKFNWYVDGVEVHNAKTKPREEQYASTYRVVSVLTVLHQDWLNGKEYKCKVSNKALPAPIEKTISKAKGQPREPQVYTLPPSRCELTKNQVSLSCAVKGFYPSDIAVEWESNGQPENNYKTTPPVLDSDGSFFLVSKLTVDKSRWQQGNVFSCSVMHEALHNHYTQKSLSLSPDYKDDDDK
chain: EPKSSDKTHTCPPCPAPELLGGPSVFLFPPKPKDTLMISRTPEVTCVVVDVSHEDPEVKFNWYVDGVEVHNAKTKPREEQYNSTYRVVSVLTVLHQDWLNGKEYKCKVSNKALPAPIEKTISKAKGQPREPQVCTLPPSRDELTKNQVSLWCLVKGFYPSDIAVEWESNGQPENNYKTTPPVLDSDGSFFLYSKLTVDKSRWQQGNVFSCSVMHEALHNRYTQKSLSLSP
light: DIVMTQSPLSLPVTPGEPASISCRSSQSLVHSNRNTYLHWYQQKPGQAPRLLIYKVSNRFSGVPDRFSGSGSGTDFTLKISRVEAEDVGVYYCGQGTQVPYTFGQGTKLEIKRTVAAPSVFIFPPSDEQLKSGTASVVCLLNNFYPREAKVQWKVDNALQSGNSQESVTEQDSKDSTYSLSSTLTLSKADYEKHKVYACEVTHQGLSSPVTKSFNRGEC

What follows are binders tested against T1, CD3 epsilon homodimer protein (UniProt P07766 23-126) (assay: SPR (Biacore T200), CD3 epsilon homodimer on CM4 chip, one-arm antibody as analyte, 25 C;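 note: homodimer attached to the sensor surface via amine coupling, HBS-EP+ used as running buffer during binding runs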).
T1 construct: immobilized on Sensor chip CM4 by amine coupling; also called CD3 (CD3 epsilon)
T1 sequence (P07766 23-126): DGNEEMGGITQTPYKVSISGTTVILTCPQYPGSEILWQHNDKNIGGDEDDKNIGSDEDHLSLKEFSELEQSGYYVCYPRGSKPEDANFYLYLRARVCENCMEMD

Point of comparison: B5, “ratio of amounts bound (altered form / CE115HA000)” value 1.43. Against it:
- B1 — lower, 0.28
- B2 — higher, 1.48
- B3 — lower, 0.91
- B4 — lower, 0.82
- B6 — lower, 1.13
